# US20110039770A1, “INHIBITORS OF PROTEIN KINASE C ISOFORMS AND USES THEREOF” (PHARMAGAP INC., priority 2005, published 2011)
# Where a SMILES comes first, the peptide text is derived from it. [ ]: non-standard residue; d: D form.
# Target: PKC-δ (Homo sapiens, UniProt Q05655)
# Assay: Competitive binding assay using cell extracts (Western blot)
# Design: cytoplasmic extracts from different cell lines expressing appropriate PKC isoforms; endogenous in cells; host or cells: H661, MDAMB231, LS180, T24; key: —: no detectable affinity; Low to very low affinity at 10X or 20X or both PRE concentrations in at least one cell line in the cell extract assay; Low affinity in purified isoform assay.; Moderate affinity at 10X or 20X or both PRE concentrations in at least one cell line in the cell extract assay.; High affinity at 10X or 20X or both PRE concentrations in at least one cell line in the cell extract assay; High affinity in purified isoform assay
# Conditions: Cell extract; PRE 10X or 20X antibody concentration
# Procedure: Binding efficiency and specificity of the peptides PRE 2, 3, 4, 5, 6, 7, 8, 9, 10, 11, 12 and 13 (see Table 4) was also tested using cytoplasmic extracts from different cell lines expressing appropriate PKC isoforms as described for Example 1. Briefly, the protein cytoplasmic extracts were separated by electrophoresis and transferred onto nitrocellulose membranes by standard Western blotting procedures. The bands on the Western blots were detected with matching primary antibodies and alkaline phosphatase conjugated secondary antibody. The bands were then scanned and the relative density measurements obtained.
# This procedure to assess the binding characteristics of the PREs is based on competition binding of the PRE with the primary anti-isoform PKC specific antibodies. The lower the measured band density, the greater the binding of the PRE to the PKC isoform. The PREs were added at 10 and 20 times (10×, 20×) the primary antibody concentration, according to classical competition between antigenic peptide and primary antibody. The following cell lines (obtained from the ATCC) were used: H661—NCI human lung carcinoma NSCLC; MDAMB231—human highly invasive breast cancer cell line from pleural effusion; LS180—human colon adenocarcinoma; LnCAP—human prostate adenocarcinoma; CCD16Lu—human lung fibroblasts; Du145—human prostate carcinoma brain metastasis, and T24—human bladder carcinoma.
# In these cases, the 20× band density figures relative to control and 10× values were reliable.
# Chain of PKC-δ (Q05655 whole entry): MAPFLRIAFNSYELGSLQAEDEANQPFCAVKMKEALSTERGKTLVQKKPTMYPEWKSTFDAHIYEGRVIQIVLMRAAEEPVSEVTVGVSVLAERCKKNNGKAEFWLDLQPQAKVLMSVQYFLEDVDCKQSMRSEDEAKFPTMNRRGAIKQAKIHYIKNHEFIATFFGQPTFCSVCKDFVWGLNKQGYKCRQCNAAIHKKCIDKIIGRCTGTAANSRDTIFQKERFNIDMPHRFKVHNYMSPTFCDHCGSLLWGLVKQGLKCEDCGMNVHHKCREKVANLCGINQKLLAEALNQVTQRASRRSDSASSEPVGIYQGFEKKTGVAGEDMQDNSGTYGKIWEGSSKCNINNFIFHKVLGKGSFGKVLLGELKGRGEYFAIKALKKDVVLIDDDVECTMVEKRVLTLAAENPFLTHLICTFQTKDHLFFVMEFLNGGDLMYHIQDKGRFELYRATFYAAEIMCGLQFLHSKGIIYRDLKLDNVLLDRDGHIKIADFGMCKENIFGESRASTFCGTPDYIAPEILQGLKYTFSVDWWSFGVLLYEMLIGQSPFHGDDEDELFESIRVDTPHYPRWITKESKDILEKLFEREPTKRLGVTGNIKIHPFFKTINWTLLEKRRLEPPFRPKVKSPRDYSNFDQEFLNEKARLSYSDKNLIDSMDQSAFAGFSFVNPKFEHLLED
row,Compound,Affinity for PKC isoform δ
1,"CC[C@H](C)[C@H](NC(=O)[C@H](CO)NC(=O)[C@@H](NC(=O)CNC(=O)[C@@H](NC(=O)[C@H](CC(C)C)NC(=O)[C@H](CC(N)=O)NC(=O)[C@H](CCC(N)=O)NC(=O)[C@H](C)NC(=O)[C@H](CC(=O)O)NC(=O)[C@H](CCCCN)NC(C)=O)[C@@H](C)CC)[C@@H](C)CC)C(N)=O [PRE 4, Ac-KDAQNLIGISI-NH2] (Ac-KDAQNLIGISI-NH2)",—
2,CC[C@H](C)[C@H](NC(=O)[C@H](CO)NC(=O)[C@@H](NC(=O)CNC(=O)[C@@H](NC(=O)[C@H](CC(C)C)NC(=O)[C@H](CC(N)=O)NC(=O)[C@H](CCC(N)=O)NC(=O)[C@H](C)NC(=O)[C@H](CC(=O)O)NC(=O)[C@H](CCCCN)NC(=O)CNC(=O)CNC(=O)[C@H](CCCCN)NC(=O)[C@@H](NC(=O)[C@H](CCC(=O)O)NC(=O)[C@H](CCC(N)=O)NC(=O)[C@@H](NC(=O)CNC(=O)[C@H](CCCCN)NC(=O)[C@H](C)NC(C)=O)[C@@H](C)CC)C(C)C)[C@@H](C)CC)[C@@H](C)CC)C(N)=O [PRE 5] (Ac-AKGIQEVKGGKDAQNLIGISI-NH2),—
3,Ac-RDAQNLIGISI-NH2 [PRE 11],—
4,Ac-ISIGILNQADK-NH2 [PRE 10],H
5,CC[C@H](C)[C@H](NC(=O)[C@H](CO)NC(=O)[C@@H](NC(=O)CNC(=O)[C@@H](NC(=O)[C@H](CC(C)C)NC(=O)[C@H](CC(N)=O)NC(=O)[C@H](CCC(N)=O)NC(=O)[C@H](C)NC(=O)[C@H](CC(=O)O)NC(=O)CNC(=O)CNC(=O)[C@H](CCCCN)NC(=O)[C@@H](NC(=O)[C@H](CCC(=O)O)NC(=O)[C@H](CCC(N)=O)NC(=O)[C@@H](NC(=O)CNC(=O)[C@H](CCCCN)NC(=O)[C@H](C)NC(C)=O)[C@@H](C)CC)C(C)C)[C@@H](C)CC)[C@@H](C)CC)C(N)=O [PRE 3] (Ac-AKGIQEVKGGDAQNLIGISI-NH2),H
6,Ac-KDAQNLI-NH2 [PRE 12],—
7,RRKKGGKDFVVKR [PRE 1],—
8,Ac-ISIGILQNADK-NH2 (not fully specified; printed as Ac-ISIGILQNADK-NH2) [PRE 7],L
9,Ac-isigilqnadk-NH2 (Ac-[dI][dS][dI]G[dI][dL][dQ][dN][dA][dD][dK]-NH2; SMILES CC[C@@H](C)[C@@H](NC(C)=O)C(=O)N[C@H](CO)C(=O)N[C@@H](C(=O)NCC(=O)N[C@@H](C(=O)N[C@H](CC(C)C)C(=O)N[C@H](CCC(N)=O)C(=O)N[C@H](CC(N)=O)C(=O)N[C@H](C)C(=O)N[C@H](CC(=O)O)C(=O)N[C@H](CCCCN)C(N)=O)[C@H](C)CC)[C@H](C)CC) [PRE 9],H
10,Ac-RDAQNLI-NH2 [PRE 13],—
11,ILEDKGGDAQNLIGISI [PRE 8],L
12,Ac-KDANQLIGISI-NH2 [PRE 6],M/H
